Earlier results on two substances are cited in PMC4747809.

Data set [1] has as its target iC3b/C3dg TED (iC3b, C3dg) (Homo sapiens) (UniProt P01024).
For data set [2], the target named is iC3b/C3dg iC3b, C3dg (Homo sapiens) (UniProt P01024).
iC3b/C3dg iC3b, C3dg (Homo sapiens), sequence (P01024 955-1303): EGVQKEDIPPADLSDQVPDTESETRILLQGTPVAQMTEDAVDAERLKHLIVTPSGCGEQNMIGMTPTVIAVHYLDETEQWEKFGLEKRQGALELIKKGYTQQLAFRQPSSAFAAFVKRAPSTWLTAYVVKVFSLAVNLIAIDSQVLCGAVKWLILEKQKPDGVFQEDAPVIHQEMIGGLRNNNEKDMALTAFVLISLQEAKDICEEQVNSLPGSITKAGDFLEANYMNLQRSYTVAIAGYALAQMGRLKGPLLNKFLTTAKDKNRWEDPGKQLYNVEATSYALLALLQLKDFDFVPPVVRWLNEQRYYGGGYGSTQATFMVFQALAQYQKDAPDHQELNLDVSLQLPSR

iC3b/C3dg TED (iC3b, C3dg) (Homo sapiens), sequence (P01024 955-1303): as above
Complement receptor 2 (CR2) domains 1-4, sequence (P20023 21-273): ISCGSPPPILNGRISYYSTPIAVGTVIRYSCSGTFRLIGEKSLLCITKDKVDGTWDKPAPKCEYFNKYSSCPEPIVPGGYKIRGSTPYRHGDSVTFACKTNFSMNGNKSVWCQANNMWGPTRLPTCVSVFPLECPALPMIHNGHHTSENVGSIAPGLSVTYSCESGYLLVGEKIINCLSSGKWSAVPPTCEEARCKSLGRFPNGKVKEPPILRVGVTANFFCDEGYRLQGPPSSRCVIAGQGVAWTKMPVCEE
Factor H (FH) domains 19-20, sequence (P08603 1107-1231): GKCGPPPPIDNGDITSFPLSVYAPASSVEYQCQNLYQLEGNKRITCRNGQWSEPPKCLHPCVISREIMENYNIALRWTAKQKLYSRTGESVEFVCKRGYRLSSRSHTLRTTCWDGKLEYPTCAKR

In general, Kd refers to the concentration at which binding is half-saturated. For “Complement receptor 2 (CR2) domains 1-4 (from UniProt P20023)”, the Kd in data set [1] was 500 nM. On to “Factor H (FH) domains 19-20 (from UniProt P08603)”, for which the equilibrium dissociation constant (Kd) in data set [2] was 5000 nM.
